Values of other authors as cited in article PMC8165686.
pKd: −log10 of the molar value.

Target: Spike RBD (SARS-CoV-2) (UniProt P0DTC2)

Substance: ACE2 23-mer peptide 21-43 (from UniProt Q9BYF1)
- pKd: 7.33
